# Reference: article PMC12820974, “Zinc-Mediated Loading and Release of His-Tagged Recombinant Proteins in Self-Assembling Peptide Coacervates” (ACS Applied Bio Materials, 2025)
# Assays:
# [1] = molecular target: EAKH6 self-assembling peptide (EAK16-II with a C-terminal hexa-histidine tag)
# [2] = molecular target: EAKH6 self-assembling peptide (EAK16-II with a C-terminal hexa-histidine tag); remark: listed apart in the source
# [3] = molecular target: the molecule itself; assay: Congo red staining (fluorescence microscopy and UV-vis absorbance); EAKH6 alone and with Zn2+ at molar ratios 1:20 to 20:1, incubated with Congo red in PBS overnight at room temperature; fibrils imaged, shift of absorbance from 500 to 540 nm
"in vitro release of HisGFP from Ca2+:EAKH6 (10:1, without Zn2+) coacervates, control; released in 5 days [1] [%]","apparent diffusion (D app) of HisGFP out of Ca2+:EAKH6 coacervates (without Zn2+), control, from the release up to 8 h [2] [m^2 s^-1]","apparent diffusion (D app) of HisGFP out of Zn2+:EAKH6 coacervates, from the release up to 8 h [2] [m^2 s^-1]",Molecule,binding result [3]
98,2.07e-11,6.7e-12,Green Fluorescent Protein coexpressed with a hexahistidine tag,–
–,–,–,"Ac-AEAEAKAKAEAEAKAKHHHHHH-NH2 (hexa-histidine tag (H6) at the C-terminus; written as a part because Zn2+ bridges it to the His tag of the cargo protein; In the assays the peptide stood as self-assembled fibrils (coacervate), with ZnCl2 or CaCl2 where said; also called Zn2+:EAKH6 (its coacervate with zinc); Ca2+:EAKH6 (with calcium); source: synthetic peptide, custom-synthesized by Biomatek (>95% purity by HPLC)) [EAKH6 self-assembling peptide (EAK16-II with a C-terminal hexa-histidine tag)]",binds
